Test results: US20090010874A1 (published 2009)

T1: human IL-4 receptor alpha chain on cells (TF-1 cells, primary human T-cell blasts and B cells) (human, UniProt P24394 26-825)
T1 sequence (looked up): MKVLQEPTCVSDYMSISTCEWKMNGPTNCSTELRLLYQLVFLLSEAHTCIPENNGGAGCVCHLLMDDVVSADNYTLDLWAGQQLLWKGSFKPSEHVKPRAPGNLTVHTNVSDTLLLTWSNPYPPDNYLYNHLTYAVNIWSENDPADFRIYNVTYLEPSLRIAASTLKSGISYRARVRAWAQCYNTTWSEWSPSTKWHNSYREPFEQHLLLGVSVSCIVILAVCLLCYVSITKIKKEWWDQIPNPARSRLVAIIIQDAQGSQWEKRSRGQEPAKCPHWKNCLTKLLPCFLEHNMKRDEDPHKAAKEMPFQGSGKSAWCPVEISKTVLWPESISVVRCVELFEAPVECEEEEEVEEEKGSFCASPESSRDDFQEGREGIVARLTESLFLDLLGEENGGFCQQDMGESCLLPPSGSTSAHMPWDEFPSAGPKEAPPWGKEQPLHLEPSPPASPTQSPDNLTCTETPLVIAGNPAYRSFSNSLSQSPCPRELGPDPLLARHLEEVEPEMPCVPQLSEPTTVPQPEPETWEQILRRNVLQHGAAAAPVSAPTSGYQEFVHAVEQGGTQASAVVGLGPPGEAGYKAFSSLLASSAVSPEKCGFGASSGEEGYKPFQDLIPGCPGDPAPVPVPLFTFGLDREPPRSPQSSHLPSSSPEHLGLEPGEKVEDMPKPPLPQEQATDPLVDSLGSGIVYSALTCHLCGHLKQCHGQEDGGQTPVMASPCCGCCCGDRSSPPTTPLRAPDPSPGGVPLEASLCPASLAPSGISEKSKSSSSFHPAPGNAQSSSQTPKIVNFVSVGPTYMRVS

T2: IL-4 receptor (immobilized on BIAcore CM5 chip) (human, UniProt P24394 26-232, limits assumed)
T2 construct: also called IL-4Rα; IL-4 receptor alpha chain
T2 sequence (looked up): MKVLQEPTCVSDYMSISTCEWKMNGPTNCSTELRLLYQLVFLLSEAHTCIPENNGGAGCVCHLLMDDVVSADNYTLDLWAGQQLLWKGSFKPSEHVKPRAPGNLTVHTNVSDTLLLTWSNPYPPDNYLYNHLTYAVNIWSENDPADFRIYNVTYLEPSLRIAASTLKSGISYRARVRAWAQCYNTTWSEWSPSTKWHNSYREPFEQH

B1: IL-4RA (IL-4 double mutein R121D/Y124D, unPEGylated) (ligand)
chain: MHKCDITLQEIIKTLNSLTEQKTLCTELTVTDIFAASKNTTEKETFCRAATVLRQFYSHHEKDTRCLGATAQQFHRHKQLIRFLKRLDRNLWGLAGLNSCPVKEANQSTLENFLERLKTIMDEKDSKCSS
notes: also called BAY 16-9996; IL-4DM
B2: IL4-RE-T13D (T13D/R121D/Y124D), unPEGylated (ligand)
chain: MHKCDITLQEIIKDLNSLTEQKTLCTELTVTDIFAASKNTTEKETFCRAATVLRQFYSHHEKDTRCLGATAQQFHRHKQLIRFLKRLDRNLWGLAGLNSCPVKEANQSTLENFLERLKTIMDEKDSKCSS
B3: IL-4TM-A104C (R121D/Y124D/A104C) PEGylated with 40 kDa branched maleimide-PEG (ligand)
chain: MHKCDITLQEIIKTLNSLTEQKTLCTELTVTDIFAASKNTTEKETFCRAATVLRQFYSHHEKDTRCLGATAQQFHRHKQLIRFLKRLDRNLWGLAGLNSCPVKECNQSTLENFLERLKTIMDEKDSKCSS
modifications: 40 kDa branched maleimide-PEG on Cys 104 (numbered according to wild type IL-4)
B4: IL-4TM-A104C (R121D/Y124D/A104C) PEGylated with 30 kDa linear maleimide-PEG (ligand)
chain: MHKCDITLQEIIKTLNSLTEQKTLCTELTVTDIFAASKNTTEKETFCRAATVLRQFYSHHEKDTRCLGATAQQFHRHKQLIRFLKRLDRNLWGLAGLNSCPVKECNQSTLENFLERLKTIMDEKDSKCSS
modifications: 30 kDa linear maleimide-PEG on Cys 104 (numbered according to wild type IL-4)
B5: IL4-RE-A104C, PEGylated with linear 22 kD mPEG-maleimide (ligand)
chain: MHKCDITLQEIIKTLNSLTEQKTLCTELTVTDIFAASKNTTEKETFCRAATVLRQFYSHHEKDTRCLGATAQQFHRHKQLIRFLKRLDRNLWGLAGLNSCPVKECNQSTLENFLERLKTIMDEKDSKCSS
modifications: linear 22 kD methoxy-polyethylene glycol-maleimide on Cys 104 (numbered according to wild type IL-4)
notes: also called PEG-IL4RE
B6: IL4-RE-S36C, PEGylated with linear 22 kD mPEG-maleimide (ligand)
chain: MHKCDITLQEIIKTLNSLTEQKTLCTELTVTDIFAACKNTTEKETFCRAATVLRQFYSHHEKDTRCLGATAQQFHRHKQLIRFLKRLDRNLWGLAGLNSCPVKEANQSTLENFLERLKTIMDEKDSKCSS
modifications: linear 22 kD methoxy-polyethylene glycol-maleimide on Cys 36 (numbered according to wild type IL-4)
notes: also called PEG-IL4RE
B7: IL-4TM-N38C (R121D/Y124D/N38C) PEGylated with 40 kDa branched maleimide-PEG (ligand)
chain: MHKCDITLQEIIKTLNSLTEQKTLCTELTVTDIFAASKCTTEKETFCRAATVLRQFYSHHEKDTRCLGATAQQFHRHKQLIRFLKRLDRNLWGLAGLNSCPVKEANQSTLENFLERLKTIMDEKDSKCSS
modifications: 40 kDa branched maleimide-PEG on Cys 38 (numbered according to wild type IL-4)
B8: IL4-RE-T28C, PEGylated with linear 22 kD mPEG-maleimide (ligand)
chain: MHKCDITLQEIIKTLNSLTEQKTLCTELCVTDIFAASKNTTEKETFCRAATVLRQFYSHHEKDTRCLGATAQQFHRHKQLIRFLKRLDRNLWGLAGLNSCPVKEANQSTLENFLERLKTIMDEKDSKCSS
modifications: linear 22 kD methoxy-polyethylene glycol-maleimide on Cys 28 (numbered according to wild type IL-4)
notes: also called PEG-IL4RE
B9: PEGylated T13D-N38C with 40 kDa branched PEG (IL4-RE-T13D-N38C) (ligand)
chain: MHKCDITLQEIIKDLNSLTEQKTLCTELTVTDIFAASKCTTEKETFCRAATVLRQFYSHHEKDTRCLGATAQQFHRHKQLIRFLKRLDRNLWGLAGLNSCPVKEANQSTLENFLERLKTIMDEKDSKCSS
modifications: 40 kDa branched maleimide-PEG on Cys 38 (numbered according to wild type IL-4)
B10: IL4-RE-K37C, PEGylated with linear 22 kD mPEG-maleimide (ligand)
chain: MHKCDITLQEIIKTLNSLTEQKTLCTELTVTDIFAASCNTTEKETFCRAATVLRQFYSHHEKDTRCLGATAQQFHRHKQLIRFLKRLDRNLWGLAGLNSCPVKEANQSTLENFLERLKTIMDEKDSKCSS
modifications: linear 22 kD methoxy-polyethylene glycol-maleimide on Cys 37 (numbered according to wild type IL-4)
notes: also called PEG-IL4RE
B11: IL4-RE-Q106C, PEGylated with linear 22 kD mPEG-maleimide (ligand)
chain: MHKCDITLQEIIKTLNSLTEQKTLCTELTVTDIFAASKNTTEKETFCRAATVLRQFYSHHEKDTRCLGATAQQFHRHKQLIRFLKRLDRNLWGLAGLNSCPVKEANCSTLENFLERLKTIMDEKDSKCSS
modifications: linear 22 kD methoxy-polyethylene glycol-maleimide on Cys 106 (numbered according to wild type IL-4)
notes: also called PEG-IL4RE
B12: IL4-RE-N105C, PEGylated with linear 22 kD mPEG-maleimide (ligand)
chain: MHKCDITLQEIIKTLNSLTEQKTLCTELTVTDIFAASKNTTEKETFCRAATVLRQFYSHHEKDTRCLGATAQQFHRHKQLIRFLKRLDRNLWGLAGLNSCPVKEACQSTLENFLERLKTIMDEKDSKCSS
modifications: linear 22 kD methoxy-polyethylene glycol-maleimide on Cys 105 (numbered according to wild type IL-4)
notes: also called PEG-IL4RE
B13: IL4-RE-N38C, PEGylated with linear 22 kD mPEG-maleimide (ligand)
chain: MHKCDITLQEIIKTLNSLTEQKTLCTELTVTDIFAASKCTTEKETFCRAATVLRQFYSHHEKDTRCLGATAQQFHRHKQLIRFLKRLDRNLWGLAGLNSCPVKEANQSTLENFLERLKTIMDEKDSKCSS
modifications: linear 22 kD methoxy-polyethylene glycol-maleimide on Cys 38 (numbered according to wild type IL-4)
notes: also called PEG-IL4RE

Legend:
[1] = molecular target: T1, human IL-4 receptor alpha chain on …; assay: cell-based or functional assay
[2] = molecular target: T1, human IL-4 receptor alpha chain on …; assay: cell-based or functional assay; remark: listed apart in the source
[3] = molecular target: T1, human IL-4 receptor alpha chain on …; assay: cell-based or functional assay; remark: listed apart in the source
[4] = molecular target: T1, human IL-4 receptor alpha chain on …; assay: cell-based or functional assay; remark: listed apart in the source
[5] = molecular target: T2, IL-4 receptor (immobilized on BIAcore …); assay: BIAcore SPR, IL-4 receptor amine-coupled to CM5 chip, mutein injected, direct binding kinetics
Description: IL-4 receptor was immobilized on a BIAcore CM5 research grade sensor chip through amine coupling. The sensor surface was activated with an EDC/NHS pulse. IL-4 receptor was dissolved in 10 mM acetate buffer (pH 5.0) and injected into flowcell 2 followed by a pulse of 1.0M ethanolamine-HCL to deactivate the surface. The immobilization level for the receptor was ˜300 RU. Flowcell 1 was also activated without a ligand to function as a blank. The Biacore Wizard was used to perform kinetics analysis. Candidate IL4RE antagonists were diluted in HBS-EP (running buffer) and injected at 30 ul/minute flow rate for 3 minutes and a dissociation time of 15 minutes. Regeneration of the chip was performed by two 30 second injections of 10 mM Glycine pH2.5 (flow 100 ul/min) to baseline prior to next injection in the concentration series. Dissociation constant (KD) values were calculated for each candidate based on direct binding kinetics (Table 5).

[6] = molecular target: T1, human IL-4 receptor alpha chain on …; assay: cell-based or functional assay; remark: listed apart in the source

Row | Binder | TF-1/IL-4 IC50 [1] [nM] | TF-1/IL-13 IC50 [1] [nM] | B-cell IC50, nM (proliferation to IL-4) [2] [nM] | T-cell blast IC50, nM (proliferation to IL-4) [2] [nM] | Fold increase in IC50 (relative to IL-4DM), primary T cell blasts [3] [fold] | IC50 (nM), primary T cell blast proliferation to IL-4 [3] [nM] | Fold increase in IC50 (relative to IL-4DM), primary B cells [4] [fold] | IC50 (nM), primary B cell proliferation to anti-CD40 and IL-4 [4] [nM] | Kd [5] [nM] | loss of activity in the TF-1 activity assay against PEGylated 38C [6] [fold]
1 | B1 | 0.56 | 1.17 | 0.86 | 3.22 | 1 | 1.07 | 1 | 1.71 | 0.11 | 
2 | B2 |  |  |  |  | 0.67 | 0.714 | 0.3 | 0.5 |  | 
3 | B3 |  |  |  |  | 7.4 | 8 | 11.3 | 19.4 |  | ~2
4 | B4 |  |  |  |  | 4.6 | 4.93 | 7.6 | 13 |  | 
5 | B5 | 0.55 | 1.34 | 3.29 | 4.67 |  |  |  |  | 0.56 | 
6 | B6 | 1.2 | 1.21 |  |  |  |  |  |  | 1.15 | 
7 | B7 |  |  |  |  | 2.3 | 2.43 | 4 | 6.85 |  | 
8 | B8 | 2.35 | 2.87 |  |  |  |  |  |  | 0.89 | 
9 | B9 |  |  |  |  | 3.1 | 3.28 | 1.4 | 2.43 |  | 
10 | B10 | 0.82 | 1.22 | 3.73 | 13.9 |  |  |  |  | 0.74 | 
11 | B11 | 2.44 | 1.95 |  |  |  |  |  |  | 0.52 | 
12 | B12 | 2.26 | 2.11 |  |  |  |  |  |  | 0.59 | 
13 | B13 | 0.7 | 1.24 | 3.33 | 9.94 |  |  |  |  | 0.77 | 
